Patent publication US10682419B2, “Prodrugs of peptide epoxy ketone protease inhibitors” (Onyx Therapeutics, Inc., priority 2012, dated 2020)

Assays:
[1] = Conversion of PEG conjugates to drug in human plasma; format: in vitro ADME
[2] = Pharmacokinetic comparison of Compound A and prodrug in mouse; format: in vivo

[Cmpd A] (μM) at 1 hr ([2]; time 1 hr) | [Cmpd A] (μM) at 4 hr ([2]; time 4 hr, BLOQ = below level of quantitation) | [Cmpd A] (μM) at 6 hr ([2]; time 6 hr, BLOQ = below level of quantitation) | [Cmpd A] (μM) at 24 hr ([2]; time 24 hr, BLOQ = below level of quantitation) | SMILES | Conversion to drug in Human Plasma (%) 2 min [1] | Conversion to drug in Human Plasma (%) 30 min [1] | Conversion to drug in Human Plasma (%) 1 hr [1] | Conversion to drug in Human Plasma (%) 2 hr [1] | Conversion to drug in Human Plasma (%) 4 hr [1]
 |  |  |  | COCCOCCOCCOCCOCCOCCOCCOCCn1cc(CNC(=O)c2cccc(S(=O)(=O)OCC(C)(O)C(=O)[C@H](CC(C)C)NC(=O)[C@H](Cc3ccccc3)NC(=O)[C@H](CC(C)C)NC(=O)[C@H](CCc3ccccc3)NC(=O)CN3CCOCC3)c2)nn1 (some centres unmarked) | 7% | 63% | 100% | 95% | 80%
 |  |  |  | COCCOCCOCCOCCOCCOCCOCCOCCn1cc(COCCCS(=O)(=O)OCC(C)(O)C(=O)[C@H](CC(C)C)NC(=O)[C@H](Cc2ccccc2)NC(=O)[C@H](CC(C)C)NC(=O)[C@H](CCc2ccccc2)NC(=O)CN2CCOCC2)nn1 (some centres unmarked) | 2% | 18% | 58% | 90% | 80%
0.008 µM | BLOQ | BLOQ | BLOQ | CC(C)C[C@H](NC(=O)[C@H](CCc1ccccc1)NC(=O)CN1CCOCC1)C(=O)N[C@@H](Cc1ccccc1)C(=O)N[C@@H](CC(C)C)C(=O)[C@@]1(C)CO1 [Cmpd A, (S)-4-methyl-N—((S)-1-(((S)-4-methyl-1-((R)-2-methyloxiran-2-yl)-1-oxopentan-2-yl)amino)-1-oxo-3-phenylpropan-2-yl)-2-((S)-2-(2-morpholinoacetamido)-4-phenylbutanamido)pentanamide] |  |  |  |  | 
